Data taken from patent US20240425569A1 (VISTERRA, published 2024).
Values joined by “and” are separate entries in the source; they are usually repeats but may differ in a detail not shown here. Identical values can stand only once. Like-named read-outs stand apart in the source and are kept apart here.

Legend:
[1] = target: T1, EDIII-DV1 (E protein domain III of dengue virus serotype DV-1) (dengue virus serotype DV-1, UniProt P17763 573-680); assay: competition ELISA
T1 construct: also called DENV-1; EDIII of DV-1
T1 chain: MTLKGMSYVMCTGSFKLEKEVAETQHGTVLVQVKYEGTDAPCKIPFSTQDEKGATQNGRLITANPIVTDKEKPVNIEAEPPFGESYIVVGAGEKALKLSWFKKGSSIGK

[2] = target: T2, EDIII-DV3 (E protein domain III of dengue virus serotype DV-3) (dengue virus serotype DV-3, UniProt P27915 571-678); assay: competition ELISA
T2 construct: also called DENV-3; EDIII of DV-3

[3] = target: T3, EDIII-DV2 (E protein domain III of dengue virus serotype DV-2) (dengue virus serotype DV-2, UniProt P14337 573-677); assay: competition ELISA
T3 construct: also called DENV-2; EDIII of DV-2

[4] = target: T2, EDIII-DV3 (E protein domain III of …)
[5] = target: T4, EDIII-DV4 (E protein domain III of dengue virus serotype DV-4) (dengue virus serotype DV-4, UniProt P09866 572-679); assay: affinity for EDIII-DV-4, tables of FIG. 5; method not stated
T4 construct: also called DENV-4

[6] = target: T4, EDIII-DV4 (E protein domain III of …)
[7] = target: T4, EDIII-DV4 (E protein domain III of …); remark: listed apart in the source
[8] = target: T4, EDIII-DV4 (E protein domain III of …); assay: competition ELISA; column 'EDIII-DV4'
[9] = target: T4, EDIII-DV4 (E protein domain III of …); assay: competition ELISA; column 'EDIII-DV4 [1/7]'
[10] = target: T4, EDIII-DV4 (E protein domain III of …); remark: listed apart in the source
[11] = target: T1, EDIII-DV1 (E protein domain III of …)
[12] = target: T2, EDIII-DV3 (E protein domain III of …); remark: listed apart in the source
[13] = target: dengue virus serotype DV-4 (live virus, representative strain not named; E protein) (dengue virus serotype DV-4); assay: cell-based or functional assay
[14] = target: T5, Philippines/1956 (H87)* (serotype III EDIII) (Dengue virus 3)
T5 construct: isolated EDIII protein

[15] = target: T3, EDIII-DV2 (E protein domain III of …)
[16] = target: T6, Mexico/1977 (BC287/97)* (serotype IV EDIII) (Dengue virus 4); assay: Kd table, method not stated; Ag DENV-4 BC2
T6 construct: isolated EDIII protein; also called EDIII of DENV-4 Mexico/1997 (BC287/97); DENV-4 BC2

[17] = target: T7, Singapore/2008 (serotype II EDIII); assay: Kd table, method not stated; Ag DENV-2 Sing
T7 construct: also called ED3-DV2/Sing08; DENV-2 Sing

[18] = target: T8, New Guinea/1944 (NGC)* (serotype II EDIII) (Dengue virus 2); assay: Kd table, method not stated; Ag DENV-2 NGC
T8 construct: isolated EDIII protein; also called EDIII of DENV-2 NGC

[19] = target: T9, Nicaragua/2010 (serotype III EDIII)
T9 construct: also called ED3-DV3/Nicaragua10; DENV-3 Nic
T9 E protein domain III (EDIII): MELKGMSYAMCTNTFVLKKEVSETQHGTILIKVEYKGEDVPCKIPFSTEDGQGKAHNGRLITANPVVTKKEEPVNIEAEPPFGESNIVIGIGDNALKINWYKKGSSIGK

[20] = target: T10, Peru/1995 (serotype II EDIII); assay: Kd table, method not stated; Ag DENV-2 Peru
T10 construct: also called ED3-DV2/Peru95; DENV-2 Peru

[21] = target: T11, New Caledonia/2009 (serotype IV EDIII); assay: Kd table, method not stated; Ag DENV-4 NC
T11 construct: also called ED3-DV4/NewCal09; DENV-4 NC
T11 E protein domain III (EDIII): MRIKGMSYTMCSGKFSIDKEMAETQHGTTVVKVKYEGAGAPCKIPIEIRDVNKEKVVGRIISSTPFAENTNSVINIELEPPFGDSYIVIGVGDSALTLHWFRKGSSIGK

[22] = target: ED3-DV4/H241/Phil56 (EDIII of DENV-4 strain H241) (dengue virus serotype DENV-4, strain …, UniProt Q58HT7 572-679); assay: Kd table, method not stated; Ag DENV-4 Phil
[23] = target: T12, Singapore/2010 (serotype IV EDIII); assay: Kd table, method not stated; Ag DENV-4 Sing
T12 construct: also called ED3-DV4/Sing10; DENV-4 Sing
T12 E protein domain III (EDIII): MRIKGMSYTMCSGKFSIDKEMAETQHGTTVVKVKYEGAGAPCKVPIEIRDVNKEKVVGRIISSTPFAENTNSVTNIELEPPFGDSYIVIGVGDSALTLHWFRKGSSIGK

[24] = target: T13, Singapore/2009 (serotype III EDIII)
T13 construct: also called ED3-DV3/Sing09; DENV-3 Sing
T13 E protein domain III (EDIII): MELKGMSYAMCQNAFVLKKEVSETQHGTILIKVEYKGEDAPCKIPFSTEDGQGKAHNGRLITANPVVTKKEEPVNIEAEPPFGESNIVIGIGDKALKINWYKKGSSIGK

[25] = target: T1, EDIII-DV1 (E protein domain III of …)
[26] = target: T2, EDIII-DV3 (E protein domain III of …); remark: listed apart in the source

B1: antibody C98 (antibody, V domains shown)
VH: QVQLVQSGAEVKKPGASVKVSCKASGFNIKDVYMSWVRQAPEQGLEWMGRIDPENGDTKYDPKLQGRVTMTADTSTNTAYMELRSLRSDDTAVYYCVRGWEGFAYWGQGTLVTVSS
VL: DIVMTQSPASLAVSLGERATISCRASENVDKYGNSFMHWYQQKPGQPPKLLIYRASELQWGVPDRFSGSGSGTDFTLTISSLQAEDVAVYYCQRSNEVPWTFGQGTKLEIK
- Kd [1]: < 0.1 nM
- Kd [2]: 1.29 nM
- Kd [3]: < 0.1 nM
- Kd [4]: 1.21 nM

B2: antibody D48 (antibody, V domains shown)
VH: VKLLEQSGAEVKKPGASVKVSCKASGFNIKDVYMSWVRQAPEQGLEWMGRIDPENGDTKYDPKLQGRVTMTADTSTNTAYMELRSLRSDDTAVYYCARGWEGFAYWGQGTLVTVSS
VL: DIVMTQSPASLAVSLGERATISCRASENVDKYGNSFMHWYQQKPGQPPKLLIYRASELQWGVPDRFSGSGSGTDFTLTISSLQAEDVAVYYCQRSNEVPWTFGQGTKLEIK
- fold improvement in affinity relative to an antibody with a fully humanized N-terminus [5]: ~2 fold
- Kd [6]: 7.49 nM

B3: antibody D98 (antibody, V domains shown)
VH: QVQLVQSGAEVKKPGASVKVSCKASAFNIKDVYMSWVRQAPEQGLEWMGRIDPENGDTKYDPKLQGRVTMTADTSTNTAYMELRSLRSDDTAVYYCARGWEGFAYWGQGTLVTVSS
VL: DIVMTQSPASLAVSLGERATISCRASENVDKYGNSFMHWYQQKPGQPPKLLIYRASELQWGVPDRFSGSGSGTDFTLTISSLQAEDVAVYYCQRSNEVPWTFGQGTKLEIK
- Kd [7]: 16.9 nM

B4: antibody D118 (antibody, V domains shown)
VH: QVQLVQSGAEVKKPGASVKVSCKASGWNIKDVYMSWVRQAPEQGLEWMGRIDPENGDTKYDPKLQGRVTMTADTSTNTAYMELRSLRSDDTAVYYCARGWEGFAYWGQGTLVTVSS
VL: DIVMTQSPASLAVSLGERATISCRASENVDKYGNSFMHWYQQKPGQPPKLLIYRASELQWGVPDRFSGSGSGTDFTLTISSLQAEDVAVYYCQRSNEVPWTFGQGTKLEIK
- Kd [1]: < 0.1 nM
- Kd [2]: 9.07 nM
- Kd [8]: 24.4 nM
- Kd [9]: 12.6 nM
- Kd [10]: 12.6 nM

B5: antibody B11 (antibody, V domains shown)
VH: VKLLEQSGAELVKPGASVRLSCTAGFNIKDTYMSWVKQRPEQGLEWIGRIDPENGDTKYDPKFQGKATITADTSSNTAYLHLSSLTSGDTAVYYCSRGWEGFAYWGQGTLVTVSA
VL: ELVMTQTPASLAVSLGQRATISCRASENVDKYGNSFMHWYQQKAGQPPKLLIYRASELQWGIPARFSGSGSRTDFTLTINPVEADDVATYFCQRSNEVPWTFGGGTKLEIK
- Kd [11]: < 0.1 nM
- Kd [12]: 2.98 nM
- IC50, focus reduction neutralization test (FRNT), DV-4 [13]: 0.5 to 1.4 µg/mL

B6: antibody A11 (antibody, V domains shown)
VH: VKLLEQSGAELVKPGASVRLSCTASGFNIKDTYMSWVKQRPEQGLEWIGRIDPENGDTKYDPKFQGKATITADTSSNTAYLHLSSLTSGDTAVYYCSRGWEGFAYWGQGTLVTVSA
VL: ELVMTQTPASLAVSLGQRATISCRASENVDKYGNSFMHWYQQKAGQPPKLLIYRASELQWGIPARFSGSGSRTDFTLTINPVEADDVATYFCQRSNEVPWTFGGGTKLEIK
notes: also called mAb A11; 4E5A
- Kd [1]: 0.35 nM and 0.269 nM
- Kd [2]: 16.8 nM and 18 nM
- Kd [14]: 14.1 nM
- Kd [11]: 0.269 nM
- Kd [12]: 18 nM
- Kd [15]: < 0.1 nM
- Kd [16]: 0.0862 µM
- Kd [17]: < 0.1 nM
- Kd [18]: < 0.1 nM
- Kd [19]: 32.1 nM
- Kd [20]: 0.39 nM
- Kd [21]: 202 nM
- Kd [22]: 5.08 µM
- Kd [23]: 136 nM
- Kd [24]: 7.5 nM

B7: mouse mAb 4E11 (antibody, V domains shown)
VH: VKLLEQSGAELVKPGASVRLSCTASGFNIKDTYMSWVKQRPEQGLEWIGRIDPANGDTKYDPKFQGKATITADTSSNTAYLHLSSLTSGDTAVYYCSRGWEGFAYWGQGTLVTVSA
VL: ELVMTQTPASLAVSLGQRATISCRASENVDRYGNSFMHWYQQKAGQPPKLLIYRASNLESGIPARFSGSGSRTDFTLTINPVEADDVATYFCQRSNEVPWTFGGGTKLEIK
notes: also called antibody 4E11
- Kd [14]: 21.8 nM
- Kd [16]: 40.8 µM
- Kd [18]: 5.2 nM
- Kd [25]: 0.33 nM
- Kd [26]: 21.8 nM
